Measurements published in patent US20220081480A1 (Merck KGaA, published 2022).
Substitutions are numbered along the chain they refer to. Names and notes keep the numbering of the source. Values joined by “and” are separate entries in the source; they are usually repeats but may differ in a detail not shown here. Equal entries are not always repeated. Where two headings read alike, the source gives them in different places.

Tests used:
[1] = target: T1, human TIM-3 on huTIM-3-CHO-S cells (human, UniProt Q8TDQ0 22-202); assay: flow cytometry on CHO-S-hTIM3 cells
T1 construct: Membrane-anchored human TIM-3 ECD (NP_116171) stably expressed on CHO-S cells; also called CHO-S-hTIM3; CHO-S-hTIM-3; not shown: membrane anchor of the expression vector, not described

[2] = target: T2, human TIM-3 ECD with 6-His tag (hu TIM-3-His6) (human, UniProt Q8TDQ0 22-200); assay: SPR (Biacore), relative to 3903E11 (VH1.0, VL1.0)
T2 construct: Novoprotein Cat# C356; the entry includes the His tag; also called hTIM3-His; human TIM3-His6

[3] = target: T1, human TIM-3 on huTIM-3-CHO-S cells; assay: cell-based or functional assay
[4] = target: T2, human TIM-3 ECD with 6-His tag (hu …); assay: ELISA, antigen coated
[5] = target: T3, cyno TIM-3-His6 (cynomolgus monkey); assay: ELISA, antigen coated
T3 construct: Made in HEK293 cells; not shown: 6-His tag
T3 chain: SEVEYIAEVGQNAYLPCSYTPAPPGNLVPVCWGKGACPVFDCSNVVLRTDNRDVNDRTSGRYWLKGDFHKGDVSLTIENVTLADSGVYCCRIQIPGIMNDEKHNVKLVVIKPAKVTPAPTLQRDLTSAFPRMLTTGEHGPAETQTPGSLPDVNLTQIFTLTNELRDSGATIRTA

[6] = target: T4, cyno TIM-3-muFc (cynomolgus monkey); assay: ELISA, antigen coated
T4 construct: Made in HEK293 cells; also called cyno TIM3-mFc; not shown: murine Fc
T4 chain: T3 chain

[7] = target: T2, human TIM-3 ECD with 6-His tag (hu …); assay: SPR (Biacore)
[8] = target: T3, cyno TIM-3-His6; assay: SPR (Biacore)
[9] = target: T2, human TIM-3 ECD with 6-His tag (hu …); assay: SPR, antibody captured, TIM-3 as analyte
[10] = target: T3, cyno TIM-3-His6; assay: SPR, antibody captured, TIM-3 as analyte
[11] = target: T1, human TIM-3 on huTIM-3-CHO-S cells; assay: FACS on CHO-S-hTIM-3 cells
[12] = target: T5, cyno TIM-3 on cynoTIM-3-Expi293F cells (cynomolgus monkey); assay: flow cytometry on 293F-cynoTIM-3 cells
T5 construct: Membrane-anchored cyno TIM-3 ECD (XP_005558438) transiently expressed on Expi293F cells; not shown: membrane anchor of the expression vector, not described
T5 chain: T3 chain

[13] = target: T6, human TIM-3 on primary human blood cells (CD14+ monocytes in whole blood; PBMCs) (human, UniProt Q8TDQ0 22-301); assay: flow cytometry on fresh human whole blood, CD14+ monocytes; unoccupied TIM-3 detected with the competing anti-TIM-3 (2E2)-APC; donors KP46231, KP46315, KP46318 (not separated)
T6 construct: whole, on cells; Endogenous receptor on donor cells; also called TIM-3 on CD14+ monocytes

[14] = target: T6, human TIM-3 on primary human blood …; assay: flow cytometry on fresh human whole blood, CD14+ monocytes; unoccupied TIM-3 detected with the competing anti-TIM-3 (2E2)-APC; donor KP46233
[15] = target: T6, human TIM-3 on primary human blood …; assay: target occupancy on CD14+ monocytes in human whole blood, flow cytometry; free TIM-3 detected with competing anti-TIM-3(2E2)-APC
[16] = target: T7, human TIM-3 ECD fused to human IgG1 Fc domain (huTIM-3-Fc) (human, UniProt Q8TDQ0 22-202); assay: ELISA: plate-bound rhTIM-3-Fc pre-incubated with antibody, His-tagged CEACAM1 detected
T7 construct: extracellular domain; Bought; Biotinylated (Sulfo-NHS-LC-Biotin) in the galectin-9 ELISAs; also called Human-TIM3-biotin; huTIM-3-Fc-biotin; not shown: human IgG1 Fc domain

[17] = target: T8, wild-type TIM-3 (hu TIM-3), HEK-expressed (human, UniProt Q8TDQ0 22-202, limits assumed); assay: SPR
T8 construct: Soluble protein of the mutagenesis study

[18] = target: T8, wild-type TIM-3 (hu TIM-3), …; assay: SPR; remark: listed apart in the source
[19] = target: T7, human TIM-3 ECD fused to human IgG1 Fc …; assay: competition ELISA: huTIM-3-Fc-biotin (0.5 µg/ml) binding to coated galectin-9
[20] = target: FcRn (UniProt P55899 24-297; P61769 21-119, limits assumed); assay: BLI (Octet), steady state
[21] = target: T9, FCγRIIIa (CD16a)_V158 (UniProt P08637 17-208); assay: BLI (Octet), antibody on FAB2G tips
T9 construct: Bought

[22] = target: T10, FCγRI (CD64) (UniProt P12314 16-288); assay: BLI (Octet), antibody on FAB2G tips
T10 construct: Bought

[23] = target: T11, FCγRIIa (CD32a)_H131 (UniProt P12318 36-218, limits assumed); assay: BLI (Octet), antibody on FAB2G tips
T11 construct: Bought
T11 sequence (looked up): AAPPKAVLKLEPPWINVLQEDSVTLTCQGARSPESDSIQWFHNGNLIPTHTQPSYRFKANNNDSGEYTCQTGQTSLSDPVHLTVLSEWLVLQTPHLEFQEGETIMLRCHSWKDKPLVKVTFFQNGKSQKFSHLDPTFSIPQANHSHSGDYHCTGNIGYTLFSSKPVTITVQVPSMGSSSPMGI

[24] = target: T7, human TIM-3 ECD fused to human IgG1 Fc …; assay: competition ELISA: huTIM-3-Fc-biotin (1 µg/ml) binding to coated galectin-9
[25] = target: T1, human TIM-3 on huTIM-3-CHO-S cells; assay: flow cytometry on CHO-S-hTIM-3 cells
[26] = target: T2, human TIM-3 ECD with 6-His tag (hu …); assay: ELISA, antigen coated; remark: listed apart in the source
[27] = target: T3, cyno TIM-3-His6; assay: ELISA, antigen coated
[28] = target: T12, marmoset TIM-3 ECD with 6-His tag (marmoset TIM-3-His6) (marmoset); assay: ELISA, antigen coated
T12 construct: Novoprotein Cat# CM64; the entry includes the His tag
T12 chain: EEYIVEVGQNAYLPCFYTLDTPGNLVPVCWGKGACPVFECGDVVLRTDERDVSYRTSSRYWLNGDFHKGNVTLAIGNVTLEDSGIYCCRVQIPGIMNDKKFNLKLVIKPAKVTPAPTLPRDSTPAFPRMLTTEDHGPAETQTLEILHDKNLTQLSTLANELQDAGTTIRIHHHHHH

[29] = target: T10, FCγRI (CD64); assay: BLI (Octet), antibody on FAB2G tips, kinetic fit
[30] = target: T2, human TIM-3 ECD with 6-His tag (hu …); assay: SPR, antibody captured, TIM-3 as analyte; remark: listed apart in the source
[31] = target: T3, cyno TIM-3-His6; assay: SPR, antibody captured, TIM-3 as analyte
[32] = target: T12, marmoset TIM-3 ECD with 6-His tag …; assay: SPR, antibody captured, TIM-3 as analyte
[33] = target: T9, FCγRIIIa (CD16a)_V158; assay: BLI (Octet), steady state
[34] = target: T11, FCγRIIa (CD32a)_H131; assay: BLI (Octet), steady state

B1: Parental Antibody 3903E11 (VL1.0, VH1.0) (antibody, human IgG1, lambda)
heavy: not shown
light: SYELTQPRSVSGSPGQSVTISCTGTSSDVGGYNYVSWYQQHPGKAPKLMIFDVSKRPSGVPDRFSGSKSGNTASLTISGLQAEDEADYYCSSYADSVVFGGGTKVTVLGQPKAAPSVTLFPPSSEELQANKATLVCLISDFYPGAVTVAWKADSSPVKAGVETTTPSKQSNNKYAASSYLSLTPEQWKSHKSYSCQVTHEGSTVEKTVAPTECS
notes: Human IgG1 (IgG1m3), lambda light chain; also called 3903E11 (VH1.0, VL1.0)
**Q.** With B1 as the binder, how does the EC50 [1] read?
**A.** Its EC50 is 0.9 nM.

**Q.** What about the “Human TIM3 KD Ratio to Parent” value [2] of the same binder?
**A.** Its value is 1.

**Q.** What about the “ADCC (51Cr release), Donor 1, EC50” value [3] of the same binder?
**A.** Its value is 0.24 nM.

**Q.** What about the “ADCC (51Cr release), Donor 2, EC50” value [3] of the same binder?
**A.** Its value is 0.11 nM.

**Q.** And the EC50 [4]?
**A.** Its EC50 is 0.01 nM.

**Q.** What about the EC50 [5] of the same binder?
**A.** The EC50 was 0.01 nM.

**Q.** And the EC50 [6]?
**A.** Its EC50 is 0.01 nM.

**Q.** And the Kd [7]?
**A.** The Kd was 3.5 nM.

**Q.** And the Kd [8]?
**A.** The Kd was 6.9 nM.

**Q.** And the Kd [9]?
**A.** Its Kd is 3.8 nM.

**Q.** What about the Kd [10] of the same binder?
**A.** The Kd was 12 nM.

**Q.** And the “MFI at 0.1 µg/ml” value [11]?
**A.** The value was 137 MFI.

**Q.** And the “MFI at 1 µg/ml” value [11]?
**A.** Its value is 1390 MFI.

**Q.** And the “MFI at 10 µg/ml” value [11]?
**A.** The value was 1490 MFI.

**Q.** What about the EC50 [12] of the same binder?
**A.** Its EC50 is 2 nM.

B2: anti-TIM-3 (A16-019-1) (antibody)
heavy: not shown
light: B1 light with S1Q, Y2S, E3A, F51Y
notes: Said to be identical to M6903 but produced in Expi293F, not CHOK1SV, cells
**Q.** With B2 as the binder, how does the “EC50 (read off the curve)” value [13] read?
**A.** Its value is ~0.07 µg/mL.

**Q.** What about the “EC50 (read off the curve)” value [14] of the same binder?
**A.** Its value is ~0.04 µg/mL.

**Q.** And the EC50 [15]?
**A.** The EC50 was 0.111 µg/mL.

B3: anti-TIM-3-3903E11(VL1.3,VH1.2)-IgG2h(FN-AQ,322A)-delK (antibody)
heavy: not shown
light: B1 light with S1Q, Y2S, E3A, F51Y
notes: Effector-negative engineered IgG2 with IgG1 hinge (C220S), F296A, N297Q, K322A, C-terminal Lys deleted; lambda light chain; also called M6903; copies: 2 + 2
**Q.** For B3, which IC50 [16] is on record?
**A.** Its IC50 is 0.353 nM and 0.053 µg/mL.

**Q.** And the Kd [17]?
**A.** Its Kd is 6.2 nM.

**Q.** What about the Kd [18] of the same binder?
**A.** Its Kd is 5.7 nM.

**Q.** What about the IC50 [19] of the same binder?
**A.** The IC50 was 7.46 nM.

**Q.** And the Kd [20]?
**A.** The Kd was 850 nM.

**Q.** Does B3 bind [21]?
**A.** Result: no binding (tested: 4000 nM to 62.5 nM)

**Q.** Does B3 bind [22]?
**A.** Result: no binding (tested: 100 nM to 1.56 nM)

**Q.** Does B3 bind [23]?
**A.** Result: no binding (tested: 4000 nM to 62.5 nM)

B4: 3903E11 (VL1.3,VH1.2) IgG1 (antibody)
heavy: not shown
light: B1 light with S1Q, Y2S, E3A, F51Y
notes: also called 3903E11 (VH1.2, VL1.3); anti-TIM3-3903E11(VL1.3, VH1.2)-IgG1; copies: 2 + 2
**Q.** Which results are given for B4?
**A.** IC50 [24]: 2.4 nM; Kd [7]: 1.6 nM; Kd [8]: 5.3 nM; EC50 [25]: 2.6 nM; MFI at 0.1 µg/ml [11]: 140 MFI; MFI at 1 µg/ml [11]: 1310 MFI; MFI at 10 µg/ml [11]: 1910 MFI; EC50 [26]: 0.01 nM; EC50 [27]: 0.02 nM; EC50 [28]: 0.01 nM; Kd [29]: 1.7 nM; Kd [30]: 2.4 nM; Kd [31]: 14 nM; Kd [32]: 11 nM; Kd [33]: 100 nM; Kd [34]: 630 nM; Kd [20]: 805 nM
